# Laboratory results published in US20150299277A1, “AGENT FOR TREATING OR PREVENTING SYSTEMIC INFLAMMATORY RESPONSE SYNDROME” (THE UNIVERSITY OF TOKYO, priority 2012, published 2015).
# Molecular target: recombinant human histone H4 (human) (UniProt P62805)
# Assay: cell-based or functional assay
substance,measurement,value
"Escherichia coli-expressed His-tagged N-terminal domain human PTX3 (18-178 amino acids), wild-type (from UniProt P26022 18-178)","aggregation stoichiometry (protein left after removal of the aggregate, SYPRO Ruby) (mol histone H4 per mol N-terminal domain)",2
